Substrate: O=S(O)(O)=S
Test: thiosulfate sulfurtransferase initial rates, Michaelis-Menten fit
Assay type: biochemical, Enterococcus faecalis
Conditions: RHD domain activity; minimal TST activity

B1: Ef CDR-RHD / CoA persulfide reductase (CoAPR) (Enterococcus faecalis OG1RF) (protein)
chain: MKIVIIGGVAGGMSAATRLRRLMEDAEIVVMEKGPFVSFANCGLPYYVSGEIAEREQLLVQTPEALKARFNLDVRPHHEVVAIDPIEKVITVKHETEILTEHYDKLILSPGAKPFVPPITGLAEAKNVFSLRNVPDLDQIMTALTPETKRAVVIGAGFIGLEMAENLQKRGLEVTLVEKAPHVLPPLDEEMAAFVKAELSKNNVQVITGQSAVAFEEEGQVIRLEDGQTLASDLTILSVGVQPENTLAVEAGVATGLRGGIVVDEHYQTNQPDIYAVGDAIVVKQQITQEDALISLASPANRQGRQVADVIAGLERKNQGSIGTAIVRVFDLTAASTGLSERAAKAAGLTTAVVHISGKDHAGYYPGATDLQLKLVFHPTTGEIYGAQGIGAKGVDKRIDILATAIKGQLTIFDLPELEFTYAPPFGSAKDPVNMLGYAAMNLVEGLSENVQWYELSNELAKGAVLLDVRNPAERANGQFKNAVSIPLNELRERLEELDKSTEYIVSCHSGLRSYIAERMLKQAGISAKNLDGAFALYRMVKPEELENV
B1 was tested, and the Km was 1000 ± 600 µM.

— paper PMC6088750
